The supplement of paper PMC9112550, “Optimization of the antimicrobial peptide Bac7 by deep mutational scanning” (BMC Biology, 2022)

System: Escherichia coli TOP10
Experiment: shrunken log2 fold change of peptide-encoding DNA abundance (4.5 h post-induction vs induction); higher = less antimicrobial activity (less host growth inhibition)
Details: time post-induction: 4.5 h; library: site-saturation at positions 5, 18, 19, 20
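Further: peptides expressed intracellularly from a pBAD plasmid library in pooled LB shake-flask culture, induced with 0.3% L-arabinose, DNA abundance read by NGS, three biological replicates, DESeq2 with apeglm shrinkage.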

Sequence	shrunken log2 fold change
RRIRTRPPRLPRPRPRPITSPRP	0.0903
RRIRTRPPRLPRPRPRPIVEPRP	0.0431
RRIRTRPPRLPRPRPRPIVRPRP	-0.00141
RRIRTRPPRLPRPRPRPIWCPRP	-0.0116
RRIRTRPPRLPRPRPRPIWFPRP	-0.033
RRIRTRPPRLPRPRPRPIWMPRP	-0.101
RRIRTRPPRLPRPRPRPIYEPRP	-0.246
RRIRTRPPRLPRPRPRPIYRPRP	-0.0278
RRIRTRPPRLPRPRPRPKATPRP	-0.146
RRIRTRPPRLPRPRPRPKAYPRP	0.0161
RRIRTRPPRLPRPRPRPKCNPRP	-0.221
RRIRTRPPRLPRPRPRPKDAPRP	0.103
RRIRTRPPRLPRPRPRPKDMPRP	-0.0311
RRIRTRPPRLPRPRPRPKEAPRP	0.00564
RRIRTRPPRLPRPRPRPKGLPRP	-0.117
RRIRTRPPRLPRPRPRPKHDPRP	-0.099
RRIRTRPPRLPRPRPRPKIWPRP	0.141
RRIRTRPPRLPRPRPRPKLGPRP	0.106
RRIRTRPPRLPRPRPRPKMYPRP	-0.52
RRIRTRPPRLPRPRPRPKNDPRP	-0.362
RRIRTRPPRLPRPRPRPKNGPRP	0.0173
RRIRTRPPRLPRPRPRPKPIPRP	0.0226
RRIRTRPPRLPRPRPRPKPKPRP	0.349
RRIRTRPPRLPRPRPRPKPQPRP	0.203
RRIRTRPPRLPRPRPRPKQDPRP	0.075

Sequence	shrunken log2 fold change
RRIRTRPPRLPRPRPRPKQIPRP	0.0644
RRIRTRPPRLPRPRPRPKRCPRP	0.0203
RRIRTRPPRLPRPRPRPKRGPRP	0.175
RRIRTRPPRLPRPRPRPKSAPRP	0.221
RRIRTRPPRLPRPRPRPKSKPRP	0.0217
RRIRTRPPRLPRPRPRPKTTPRP	0.0871
RRIRTRPPRLPRPRPRPKVHPRP	-0.429
RRIRTRPPRLPRPRPRPKVNPRP	-0.168
RRIRTRPPRLPRPRPRPKYMPRP	-0.15
RRIRTRPPRLPRPRPRPKYYPRP	-0.54
RRIRTRPPRLPRPRPRPLDIPRP	-1.22
RRIRTRPPRLPRPRPRPLETPRP	0.0461
RRIRTRPPRLPRPRPRPLEVPRP	-0.00296
RRIRTRPPRLPRPRPRPLHNPRP	-0.557
RRIRTRPPRLPRPRPRPLICPRP	-0.277
RRIRTRPPRLPRPRPRPLIYPRP	-0.174
RRIRTRPPRLPRPRPRPLKKPRP	-0.0468
RRIRTRPPRLPRPRPRPLLLPRP	0.758
RRIRTRPPRLPRPRPRPLNRPRP	-0.173
RRIRTRPPRLPRPRPRPLPMPRP	-0.0573
RRIRTRPPRLPRPRPRPLPSPRP	-0.0373
RRIRTRPPRLPRPRPRPLPWPRP	0.147
RRIRTRPPRLPRPRPRPLQQPRP	-0.0185
RRIRTRPPRLPRPRPRPLRRPRP	0.323
RRIRTRPPRLPRPRPRPLSIPRP	-0.487

Sequence	shrunken log2 fold change
RRIRTRPPRLPRPRPRPLTQPRP	-0.309
RRIRTRPPRLPRPRPRPLVFPRP	-0.214
RRIRTRPPRLPRPRPRPLWEPRP	-0.0281
RRIRTRPPRLPRPRPRPLYRPRP	0.0015
RRIRTRPPRLPRPRPRPLYTPRP	-0.322
RRIRTRPPRLPRPRPRPLYWPRP	-0.559
RRIRTRPPRLPRPRPRPMCLPRP	0.0631
RRIRTRPPRLPRPRPRPMDQPRP	0.0595
RRIRTRPPRLPRPRPRPMFKPRP	-0.122
RRIRTRPPRLPRPRPRPMFVPRP	-0.215
RRIRTRPPRLPRPRPRPMGAPRP	-0.0569
RRIRTRPPRLPRPRPRPMGCPRP	-0.145
RRIRTRPPRLPRPRPRPMLDPRP	-0.0137
RRIRTRPPRLPRPRPRPMLQPRP	0.00738
RRIRTRPPRLPRPRPRPMNCPRP	-0.0645
RRIRTRPPRLPRPRPRPMPAPRP	0.102
RRIRTRPPRLPRPRPRPMQNPRP	-0.0815
RRIRTRPPRLPRPRPRPMRFPRP	0.00408
RRIRTRPPRLPRPRPRPMTEPRP	-0.0359
RRIRTRPPRLPRPRPRPMVEPRP	0.0887
RRIRTRPPRLPRPRPRPMWFPRP	0.253
RRIRTRPPRLPRPRPRPNAAPRP	0.371
RRIRTRPPRLPRPRPRPNANPRP	-0.0879
RRIRTRPPRLPRPRPRPNATPRP	0.469
RRIRTRPPRLPRPRPRPNAWPRP	0.0447

Sequence	shrunken log2 fold change
RRIRTRPPRLPRPRPRPNCQPRP	-0.369
RRIRTRPPRLPRPRPRPNDAPRP	-0.036
RRIRTRPPRLPRPRPRPNDDPRP	-0.519
RRIRTRPPRLPRPRPRPNDIPRP	-0.873
RRIRTRPPRLPRPRPRPNENPRP	1.59
RRIRTRPPRLPRPRPRPNEVPRP	0.0231
RRIRTRPPRLPRPRPRPNFGPRP	-0.0173
RRIRTRPPRLPRPRPRPNIYPRP	0.0647
RRIRTRPPRLPRPRPRPNLFPRP	0.0121
RRIRTRPPRLPRPRPRPNLLPRP	-0.245
RRIRTRPPRLPRPRPRPNLMPRP	-0.164
RRIRTRPPRLPRPRPRPNMLPRP	-0.45
RRIRTRPPRLPRPRPRPNMWPRP	-0.365
RRIRTRPPRLPRPRPRPNNKPRP	-0.474
RRIRTRPPRLPRPRPRPNNLPRP	-0.252
RRIRTRPPRLPRPRPRPNNYPRP	-0.754
RRIRTRPPRLPRPRPRPNPPPRP	0.199
RRIRTRPPRLPRPRPRPNQCPRP	0.00866
RRIRTRPPRLPRPRPRPNQHPRP	-0.354
RRIRTRPPRLPRPRPRPNRCPRP	-0.189
RRIRTRPPRLPRPRPRPNRDPRP	-0.0614
RRIRTRPPRLPRPRPRPNRSPRP	-0.069
RRIRTRPPRLPRPRPRPNSIPRP	-0.0867
RRIRTRPPRLPRPRPRPNSSPRP	-0.13
RRIRTRPPRLPRPRPRPNVKPRP	-0.137

Sequence	shrunken log2 fold change
RRIRTRPPRLPRPRPRPNWLPRP	0.295
RRIRTRPPRLPRPRPRPNYAPRP	0.0202
RRIRTRPPRLPRPRPRPNYDPRP	-0.493
RRIRTRPPRLPRPRPRPPAQPRP	0.608
RRIRTRPPRLPRPRPRPPARPRP	0.546
RRIRTRPPRLPRPRPRPPASPRP	1.72
RRIRTRPPRLPRPRPRPPAWPRP	0.663
RRIRTRPPRLPRPRPRPPCRPRP	0.121
RRIRTRPPRLPRPRPRPPDIPRP	-0.118
RRIRTRPPRLPRPRPRPPDKPRP	-0.146
RRIRTRPPRLPRPRPRPPEMPRP	0.237
RRIRTRPPRLPRPRPRPPFCPRP	0.188
RRIRTRPPRLPRPRPRPPFPPRP	0.256
RRIRTRPPRLPRPRPRPPIIPRP	0.0882
RRIRTRPPRLPRPRPRPPIRPRP	-0.1
RRIRTRPPRLPRPRPRPPKTPRP	0.142
RRIRTRPPRLPRPRPRPPLWPRP	0.689
RRIRTRPPRLPRPRPRPPNRPRP	0.135
RRIRTRPPRLPRPRPRPPPDPRP	0.58
RRIRTRPPRLPRPRPRPPQEPRP	0.0383
RRIRTRPPRLPRPRPRPPRIPRP	0.27
RRIRTRPPRLPRPRPRPPRVPRP	0.334
RRIRTRPPRLPRPRPRPPSQPRP	0.269
RRIRTRPPRLPRPRPRPPVNPRP	0.0698
RRIRTRPPRLPRPRPRPPWYPRP	-0.166

Sequence	shrunken log2 fold change
RRIRTRPPRLPRPRPRPPYHPRP	-0.541
RRIRTRPPRLPRPRPRPPYRPRP	-0.187
RRIRTRPPRLPRPRPRPPYYPRP	-0.535
RRIRTRPPRLPRPRPRPQCWPRP	-0.19
RRIRTRPPRLPRPRPRPQEDPRP	-0.01
RRIRTRPPRLPRPRPRPQFIPRP	-0.07
RRIRTRPPRLPRPRPRPQHNPRP	-0.324
RRIRTRPPRLPRPRPRPQHQPRP	-0.132
RRIRTRPPRLPRPRPRPQINPRP	-0.348
RRIRTRPPRLPRPRPRPQLGPRP	-0.0516
RRIRTRPPRLPRPRPRPQLHPRP	0.0211
RRIRTRPPRLPRPRPRPQMGPRP	-0.0284
RRIRTRPPRLPRPRPRPQNFPRP	-0.18
RRIRTRPPRLPRPRPRPQNKPRP	-0.664
RRIRTRPPRLPRPRPRPQNSPRP	-1.19
RRIRTRPPRLPRPRPRPQQAPRP	-0.0444
RRIRTRPPRLPRPRPRPQRFPRP	0.00548
RRIRTRPPRLPRPRPRPQRKPRP	0.138
RRIRTRPPRLPRPRPRPQSKPRP	-0.209
RRIRTRPPRLPRPRPRPQSNPRP	-0.581
RRIRTRPPRLPRPRPRPQSVPRP	-0.104
RRIRTRPPRLPRPRPRPQSWPRP	0.234
RRIRTRPPRLPRPRPRPQSYPRP	-0.0281
RRIRTRPPRLPRPRPRPQTVPRP	-0.216
RRIRTRPPRLPRPRPRPQVFPRP	-0.0243
